Drawing on US20190382503A1 (published 2019), this text covers EC50 for 1 molecule.

Assay [1] has as its target T1, human 5T4 on cells (human, UniProt Q13641 32-420).
T1 construct: Human 5T4 on transfected cells (CHO-K1, CT26, B16) or endogenous on human tumour lines; the cell line is named under assay; also called trophoblast glycoprotein; TPBG
T1 sequence: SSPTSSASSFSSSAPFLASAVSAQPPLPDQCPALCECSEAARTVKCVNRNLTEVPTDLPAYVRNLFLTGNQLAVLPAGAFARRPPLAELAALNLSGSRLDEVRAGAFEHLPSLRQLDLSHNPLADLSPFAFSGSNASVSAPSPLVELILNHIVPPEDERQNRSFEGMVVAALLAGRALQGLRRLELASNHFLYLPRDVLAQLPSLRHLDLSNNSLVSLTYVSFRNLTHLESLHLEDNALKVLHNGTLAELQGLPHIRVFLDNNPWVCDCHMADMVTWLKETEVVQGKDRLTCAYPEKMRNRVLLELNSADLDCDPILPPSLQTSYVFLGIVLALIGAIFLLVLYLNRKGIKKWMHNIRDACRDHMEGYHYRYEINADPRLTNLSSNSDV
The assay can be described thus: flow cytometry, JAR cells, streptavidin-PE, normalized MFI of 2 pooled experiments. As to the method:
(§1) Biotinylation: In order to detect ALG.APV-210 binding to 5T4-expressing cell lines, ALG.APV-210 was first biotinylated. The quality of the biotinylated protein and the impact on binding to its targets was assessed using ELISA.
(§2) FACS staining and analysis of 5T4-expressing cell lines: Prior to the FACS staining, all cell lines were characterized for their 5T4 expression levels using a receptor density kit (Quantum Simply Cellular, anti-human IgG, Bangs Laboratories, Inc). Adherent cell lines were cultured according to their supplier's instructions and were harvested from their cell culture flasks using Trypsin/EDTA, counted in R10 medium in a Burker chamber, and diluted in FACS buffer (PBS+0.5% BSA, 0.05% NaN₃) to a concentration of 4×10⁶ cells/mL. 50 μL (0.20×10⁶) of cell solution was added to a 96-well FACS staining plate (Falcon #351190). Cells were incubated for 20 min in 4° C. with 50 μL of the biotinylated ALG.APV-210 (2× final concentration). […] Cells were analysed for ALG.APV-210 binding using flow cytometry (FACSVerse) by gating on single cells. MFI values (secondary antibody only subtracted) from 1 out of 2 independent experiments, as well as normalized data and EC₅₀-values of pooled data from 2 experiments were determined and plotted using GraphPad Prism 7, non-linear regression log (agonist) vs. normalized response-variable slope.

Assay [2] deals with T1, human 5T4 on cells. Description: flow cytometry, BxPC-3 cells, streptavidin-PE, normalized MFI of 2 pooled experiments. As to the method:
as §2, with “concentration). The antibodies were added in a serial dilution starting at 20 μg/mL titrating down in a 12 step 1/2 dilution down to 0.010 μg/mL.” for “concentration).”

The target in assay [3] is T1, human 5T4 on cells. Description: flow cytometry, B16-hu5T4 cells, streptavidin-PE, normalized MFI of 2 pooled experiments. As to the method:
as §2, with “concentration). The antibodies were added in a serial dilution starting at 20 μg/mL titrating down in a 12 step 1/2 dilution down to 0.010 μg/mL.” for “concentration).”

For assay [4], the target named is T1, human 5T4 on cells. Description: flow cytometry, SKOV-3 cells, streptavidin-PE, normalized MFI of 2 pooled experiments. As to the method:
as §1, §2

The target of assay [5] is T1, human 5T4 on cells. The assay can be described thus: flow cytometry, CT26-hu5T4^high cells, streptavidin-PE, normalized MFI of 2 pooled experiments. As to the method: as §1, §2
Assay [6] deals with T2, human CD137 on cells (human, UniProt Q07011 24-255).
T2 construct: Human CD137 on CHO-K1 transfectants, Jurkat/CD137 reporter cells or CD3-stimulated primary human CD8 T cells; cells named under assay; also called 4-1BB; TNFRSF9
T2 sequence (Q07011 24-255 limits assumed): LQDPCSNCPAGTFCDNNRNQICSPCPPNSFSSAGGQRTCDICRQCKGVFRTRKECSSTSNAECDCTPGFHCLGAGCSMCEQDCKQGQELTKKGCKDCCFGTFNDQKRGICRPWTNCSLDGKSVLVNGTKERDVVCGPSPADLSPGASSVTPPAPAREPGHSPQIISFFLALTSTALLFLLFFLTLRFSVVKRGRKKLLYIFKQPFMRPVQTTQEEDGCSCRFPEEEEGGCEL
The assay can be described thus: flow cytometry, human CD8 T cells gated from CD3-stimulated PBMC, normalized MFI, 2 pooled experiments. As to the method:
(§3) FACS staining and analysis of CD8 T cells: Following 48 h of incubation with or without CD3, human and cynomolgus PBMC were harvested, pooled, recounted and diluted in FACS buffer (PBS+0.5% BSA, 0.05% NaN₃) to a concentration of 5×10⁶ cells/mL. 50 μL (0.25×10⁶ cells) of cell solution was added to a 96-well FACS staining plate (Falcon #351190). Following 10 min of Fc-blocking in RT using Beriglobin (hIgG, 200 μg/mL), cells were washed in FACS buffer and then incubated for 1 h in 4° C. with 100 μL of the biotinylated ALG.APV-210 or negative control. The antibodies were added in a serial dilution starting either at 5 μg/mL titrating down in a 12 step 1/3 dilution down to 0.0003 μg/mL (exp 1) or 1 μg/mL titrating down in a 12 step 1/2 dilution down to 0.0005 μg/mL (exp 2). […] Cells were analysed for ALG.APV-210 binding using flow cytometry by gating on viable, single cells expressing CD3 and CD8. MFI values (FMO subtracted) from 2 independent experiments as well as normalized pooled data from 2 experiments and EC₅₀-values were determined and plotted using GraphPad Prism 7, non-linear regression log (agonist) vs. normalized response-variable slope, n=6 donors/group.

Assay [7] addresses T2, human CD137 on cells. The assay can be described thus: flow cytometry, CD3-stimulated primary human CD8 T cells (summary of the study). As to the method: as §3
Assay [8] deals with T1, human 5T4 on cells. The assay can be described thus: flow cytometry, CT26-hu5T4^low cells, streptavidin-PE, normalized MFI of 2 pooled experiments. As to the method:
as §2, with “concentration). The antibodies were added in a serial dilution starting at 20 μg/mL titrating down in a 12 step 1/2 dilution down to 0.010 μg/mL.” for “concentration).”

Assay [9] deals with T1, human 5T4 on cells. The assay can be described thus: flow cytometry, JEG cells, streptavidin-PE, normalized MFI of 2 pooled experiments. As to the method:
as §2, with “concentration). The antibodies were added in a serial dilution starting at 20 μg/mL titrating down in a 12 step 1/2 dilution down to 0.010 μg/mL.” for “concentration).”

B1: biotinylated ALG.APV-210 (bispecific antibody)
chain: EVQLLESGGGLVQPGGSLRLSCAASGFTFSHGSMYWVRQAPGKGLEWVSSISSGSGSTYYADSVKGRFTISHDNSKNTLYLQMNSLRAEDTAVYYCARSSYYGSYYSIDYWGQGTLVTVSSGGGGSGGGGSGGGGSGGGGSDIQMTQSPSSLSASVGDRVTITCRASQSISSYLNWYQQKPGKAPKLLIYAASSLQSGVPSRFSGSGSGTDFTLTISSLQPEDFATYYCQQYYDNLPTFGQGTKLEIKEPKSSDKTHTCPPCPAPEAAGAPSVFLFPPKPKDTLMISRTPEVTCVVVDVSHEDPEVKFNWYVDGVEVHNAKTKPREEQYNSTYRVVSVLTVLHQDWLNGKEYKCAVSNKALPAPIEKTISKAKGQPREPQVYTLPPSRDELTKNQVSLTCLVKGFYPSDIAVEWESNGQPENNYKTTPPVLDSDGSFFLYSKLTVDKSRWQQGNVFSCSVMHEALHNHYTQKSLSLSPGSGGGGSGGGGSGGGGSPSEVQLLESGGGLVQPGGSLRLSCAASGFTFSSYAMSWVRQAPGKCLEWVSAISGSGGSTYYADSVKGRFTISRDNSKNTLYLQMNSLRAEDTAVYYCARYYGGYYSAWMDYWGQGTLVTVSSGGGGSGGGGSGGGGSGGGGSDIQMTQSPSSLSASVGDRVTITCRASQSISSFLNWYQQKPGKAPKLLIYAASSLQSGVPSRFSGSGSGTDFTLTISSLQPEDSATYYCQQTYGYLHTFGCGTKLEIKR
modifications: biotinylated (sites not given)
In the case of B1, the EC50 with human 5T4 on cells [1] came to 9 nM; in the assay with human 5T4 on cells [2] it was 20 nM; with human 5T4 on cells [3], 14 nM; with human 5T4 on cells [4], 15 nM; in the assay with human 5T4 on cells [5] it was 20 nM; with human CD137 on cells [6], 0.235 nM. Further, the 50% effective concentration (EC50) was 0.2 nM in the assay with human CD137 on cells [7], 11 nM in the assay with human 5T4 on cells [8] and 8 nM with human 5T4 on cells [9].
